Assay results taken from publication PMC4546420.

Target: MBP-linker-MPR-TM (HIV-1) (UniProt P04578)
Assay: SEC; Superdex-200 HR 10/300, 20 mM NaCl, 20 mM Tris-HCl pH 7.5, 0.015% beta-DDM; calibrated with protein standards; protein in beta-DDM micelles

## MBP-linker-MPR-TM (from UniProt P04578 649-705) (domain or fragment)
  stoichiometry N: > 6
